Tests used:
[1] = substrate: CN(CC(=O)O)C(=N)N; test: purified protein, by the assay type; conditions: other: 37° C., 0.1 mole/liter Tris-HCl (pH 8.0), optimum test conditions, wild type enzyme
[2] = substrate: CN(CC(=O)O)C(=N)N; test: purified protein, by the assay type; assay type: biochemical, Pseudomonas putida; conditions: other: 37° C., 0.1 mole/liter Tris-HCl (pH 8.0), optimum test conditions, mutant 109 = Val
Text: (optimum test conditions)

B1: Pseudomonas putida creatine amidinohydrolase, wild type, from Escherichia coli DSM 3143 (pBT 2a-1, DSM 3148P) (Pseudomonas putida) (protein)
chain: MQMPKTLRIRNGDKVRSTFSAQEYANRQARLRAHLAAENIDAAIFTSYHNINYYSDFLYCSFGRPYALVVTEDDVISISANIDGGQPWRRTVGTDNIVYTDWQRDNYFAAIQQALPKARRIGIEHDHLNLQNRDKLAARYPDAELVDVAAACMRMRMIKSAEEHVMIRHGARIADIGGAAVVEALGDQVPEYEVALHATQAMVRAIADTFEDVELMDTWTWFQSGINTDGAHNPVTTRKVNKGDILSLNCFPMIAGYYTALERTLFLDHCSDDHLRLWQVNVEVHEAGLKLIKPGARCSDIARELNEIFLKHDVLQYRTFGYGHSFGTLSHYYGREAGLELREDIDTVLEPGMVVSMEPMIMLPEGLPGAGGYREHDILIVNENGAENITKFPYGPEKNIIRK
For B1, the Km [1] was 25 mM.

B2: Pseudomonas putida creatine amidinohydrolase mutant (amino acid 109 = Val; Ala109Val), from Escherichia coli DSM 4105 (pBT 109, DSM 4108P) (Pseudomonas putida; … (protein)
chain: MQMPKTLRIRNGDKVRSTFSAQEYANRQARLRAHLAAENIDAAIFTSYHNINYYSDFLYCSFGRPYALVVTEDDVISISANIDGGQPWRRTVGTDNIVYTDWQRDNYFVAIQQALPKARRIGIEHDHLNLQNRDKLAARYPDAELVDVAAACMRMRMIKSAEEHVMIRHGARIADIGGAAVVEALGDQVPEYEVALHATQAMVRAIADTFEDVELMDTWTWFQSGINTDGAHNPVTTRKVNKGDILSLNCFPMIAGYYTALERTLFLDHCSDDHLRLWQVNVEVHEAGLKLIKPGARCSDIARELNEIFLKHDVLQYRTFGYGHSFGTLSHYYGREAGLELREDIDTVLEPGMVVSMEPMIMLPEGLPGAGGYREHDILIVNENGAENITKFPYGPEKNIIRK
notes: made in house; host or cells: Escherichia coli DSM 4105 (plasmid pBT 109, DSM 4108P)
With B2 the Km [2] was 20 mM.

B3: Pseudomonas putida creatine amidinohydrolase mutant (Ala109Val and Val355Met), from Escherichia coli DSM 4106 (pBT 119, DSM 4107P) (Pseudomonas putida; … (protein)
chain: MQMPKTLRIRNGDKVRSTFSAQEYANRQARLRAHLAAENIDAAIFTSYHNINYYSDFLYCSFGRPYALVVTEDDVISISANIDGGQPWRRTVGTDNIVYTDWQRDNYFVAIQQALPKARRIGIEHDHLNLQNRDKLAARYPDAELVDVAAACMRMRMIKSAEEHVMIRHGARIADIGGAAVVEALGDQVPEYEVALHATQAMVRAIADTFEDVELMDTWTWFQSGINTDGAHNPVTTRKVNKGDILSLNCFPMIAGYYTALERTLFLDHCSDDHLRLWQVNVEVHEAGLKLIKPGARCSDIARELNEIFLKHDVLQYRTFGYGHSFGTLSHYYGREAGLELREDIDTVLEPGMVMSMEPMIMLPEGLPGAGGYREHDILIVNENGAENITKFPYGPEKNIIRK
notes: made in house; host or cells: Escherichia coli DSM 4106 (plasmid pBT 119, DSM 4107P)
Protein B3 has a Km ([2]; 355 = Met) of 16 mM.
